According to patent US6627739:

Key:
[1] = target: MBP-C125sw fusion protein [MBP: P0AEX9]
[2] = target: Swedish mutant APP (βAPP 751 sw) expressed from pohCK751 in 293T cells, P05067
[3] = target: wild-type APP (βAPP 751) expressed from pohCK751 in 293T cells, P05067
wild-type APP (βAPP 751) expressed from pohCK751 in 293T cells, P05067, sequence (P05067 whole entry, looked up): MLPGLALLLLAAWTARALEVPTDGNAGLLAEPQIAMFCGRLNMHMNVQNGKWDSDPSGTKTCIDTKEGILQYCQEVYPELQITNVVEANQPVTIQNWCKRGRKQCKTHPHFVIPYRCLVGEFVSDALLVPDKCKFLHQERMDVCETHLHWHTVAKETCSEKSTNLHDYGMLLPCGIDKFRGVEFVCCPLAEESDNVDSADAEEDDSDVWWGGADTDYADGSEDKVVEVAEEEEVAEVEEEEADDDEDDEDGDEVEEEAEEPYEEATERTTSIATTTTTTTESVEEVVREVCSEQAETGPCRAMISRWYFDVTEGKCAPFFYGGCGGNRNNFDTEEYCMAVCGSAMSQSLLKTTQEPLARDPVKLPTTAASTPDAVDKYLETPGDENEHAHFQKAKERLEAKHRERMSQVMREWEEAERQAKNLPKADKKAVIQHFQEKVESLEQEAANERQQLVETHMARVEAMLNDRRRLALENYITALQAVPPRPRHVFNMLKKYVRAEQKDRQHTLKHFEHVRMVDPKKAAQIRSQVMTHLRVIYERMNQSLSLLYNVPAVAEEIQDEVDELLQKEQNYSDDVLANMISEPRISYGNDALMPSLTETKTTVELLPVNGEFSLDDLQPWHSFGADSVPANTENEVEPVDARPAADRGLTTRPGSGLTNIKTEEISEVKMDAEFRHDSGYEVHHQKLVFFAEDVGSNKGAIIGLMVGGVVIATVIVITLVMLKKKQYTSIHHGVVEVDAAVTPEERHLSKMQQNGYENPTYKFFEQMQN

Swedish mutant APP (βAPP 751 sw) expressed from pohCK751 in 293T cells, P05067, sequence (P05067 whole entry, looked up, change not shown): as the sequence (P05067 whole entry, looked up) above

B1: 452stop, recombinant β-secretase truncated at position 452 (1-452) (protein)
chain: ETDEEPEEPGRRGSFVEMVDNLRGKSGQGYYVEMTVGSPPQTLNILVDTGSSNFAVGAAPHPFLHRYYQRQLSSTYRDLRKGVYVPYTQGKWEGELGTDLVSIPHGPNVTVRANIAAITESDKFFINGSNWEGILGLAYAEIARPDDSLEPFFDSLVKQTHVPNLFSLQLCGAGFPLNQSEVLASVGGSMIIGGIDHSLYTGSLWYTPIRREWYYEVIIVRVEINGQDLKMDCKEYNYDKSIVDSGTTNLRLPKKVFEAAVKSIKAASSTEKFPDGFWLGEQLVCWQAGTTPWNIFPVISLYLMGEVTNQSFRITILPQQYLRPVEDVATSQDDCYKFAISQSSTGTVMGAVIMEGFYVVFDRARKRIGFAVSACHVHDEFRTAAVEGPFVTLDMEDCGYNIPQTDEYKDDDDK
- cleavage of substrate [1]: The C-terminal truncated form of the enzyme exhibited activity in leaving the MBP-C125sw substrate as well as the P26-P4′ substrate

B2: FLp501, full length recombinant β-secretase having a C-terminal flag sequence (protein)
chain: ETDEEPEEPGRRGSFVEMVDNLRGKSGQGYYVEMTVGSPPQTLNILVDTGSSNFAVGAAPHPFLHRYYQRQLSSTYRDLRKGVYVPYTQGKWEGELGTDLVSIPHGPNVTVRANIAAITESDKFFINGSNWEGILGLAYAEIARPDDSLEPFFDSLVKQTHVPNLFSLQLCGAGFPLNQSEVLASVGGSMIIGGIDHSLYTGSLWYTPIRREWYYEVIIVRVEINGQDLKMDCKEYNYDKSIVDSGTTNLRLPKKVFEAAVKSIKAASSTEKFPDGFWLGEQLVCWQAGTTPWNIFPVISLYLMGEVTNQSFRITILPQQYLRPVEDVATSQDDCYKFAISQSSTGTVMGAVIMEGFYVVFDRARKRIGFAVSACHVHDEFRTAAVEGPFVTLDMEDCGYNIPQTDESTLMTIAYVMAAICALFMLPLCLMVCQWRCLRCLRQQHDDFADDISLLKYKDDDDK
- cleavage of substrate [1]: Both enzymes exhibited activity in cleaving β-secretase substrates such as MBP-C125

B3: recombinant full-length human β-secretase (1-501) expressed from pCEK clone 27 / pCFβA2 in 293T or Cos A2 cells (protein)
chain: ETDEEPEEPGRRGSFVEMVDNLRGKSGQGYYVEMTVGSPPQTLNILVDTGSSNFAVGAAPHPFLHRYYQRQLSSTYRDLRKGVYVPYTQGKWEGELGTDLVSIPHGPNVTVRANIAAITESDKFFINGSNWEGILGLAYAEIARPDDSLEPFFDSLVKQTHVPNLFSLQLCGAGFPLNQSEVLASVGGSMIIGGIDHSLYTGSLWYTPIRREWYYEVIIVRVEINGQDLKMDCKEYNYDKSIVDSGTTNLRLPKKVFEAAVKSIKAASSTEKFPDGFWLGEQLVCWQAGTTPWNIFPVISLYLMGEVTNQSFRITILPQQYLRPVEDVATSQDDCYKFAISQSSTGTVMGAVIMEGFYVVFDRARKRIGFAVSACHVHDEFRTAAVEGPFVTLDMEDCGYNIPQTDESTLMTIAYVMAAICALFMLPLCLMVCQWRCLRCLRQQHDDFADDISLLK
- Aβ(x-40) production, ELISA of conditioned media [2]: approximate 2-fold increase in Aβ(x-40)
- Aβ(x-40) production, ELISA of conditioned media [3]: approximately 8-fold increase in Aβ(x-40) production

B4: naturally occurring human β-secretase purified from human brain (protein)
chain: B3 chain
- Specific Activity (MBP-C125 sw assay), Anion Exchange Pool (nM/h/µg prot.) [1]: 1.49e+06
